Reference: paper PMC10629159

Assay: BioID2 proximity profile; Myc immunofluorescence
Details: glycan lost; control: EMP3 WT bait

B1: Epithelial membrane protein 3 (EMP3): N47A (protein)
parent chain: MSLLLLVVSALHILILILLFVATLDKSWWTLPGKESLNLWYDCTWNNDTKTWACSNVSENGWLKAVQVLMVLSLILCCLSFILFMFQLYTMRRGGLFYATGLCQLCTSVAVFTGALIYAIHAEEILEKHPRGGSFGYCFALAWVAFPLALVSGIIYIHLRKRE
localisation_or_trafficking: no change
